In article PMC3276575, “Structural and Functional Insights into the Pilotin-Secretin Complex of the Type II Secretion System” (PLoS Pathogens, 2012):
Residue numbers refer to the chain shown, from its start. Ends that are not written are not given here.

Key:
pilotin (OutS) = experiment: 3JHNHA NMR spectra of secretin peptide with pilotin; assay type: binding, Dickeya dadantii; conditions: presence of pilotin, 15°C
Procedure: (§1) Samples of 0.05 to 0.5 mM labelled proteins in 90% H2O, 10% ^2H2O containing 20 mM Tris (pH 7.0) and 150 mM NaCl. All NMR spectra were acquired at 15°C using Bruker Avance 700- and 600-MHz spectrometers. Assignment of ^1H, ^15N, and ^13C resonances of the backbone was achieved by analysis of HNCACB, CBCA (CO)NH triple resonance experiments.
Supplementary file ppat.1002531.s005.doc: Figure S5 3JHNHA spectra of ^15N-labelled secretin peptide (OutD^680–710) in the absence (red) and presence (black) of pilotin (OutS). The spectra were acquired using a Bruker 700 MHz spectrophotometer at measured at 15°C. […] The 3JHNHA coupling constant was calculated according to measurement of the diagonal-peak to cross-peak intensity ratio in a 3D ^15N separated quantitative J-correlation spectra. […] (DOC) Click here for additional data file.

[1] = target: T1, non-lipidated pilotin OutS (residues 26 to 132) of Dickeya dadantii (Dickeya dadantii, UniProt Q01567 26-132, disulfide bridge Cys 61-Cys 115); experiment: NMR titration; 1H-15N HSQC of 15N-labelled pilotin (100 µM), unlabelled secretin peptides titrated in; 15°C, 20 mM Tris pH 7.0, 150 mM NaCl; conditions: both partners purified
T1 chain: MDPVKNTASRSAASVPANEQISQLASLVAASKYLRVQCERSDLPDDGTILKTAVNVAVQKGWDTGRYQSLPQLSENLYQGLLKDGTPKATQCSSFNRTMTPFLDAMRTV

[2] = Cleavage of secretin peptide during lengthy NMR experiments; assay type: physicochemical; conditions: during more lengthy NMR experiments; 20 mM Tris pH 7.0, 150 mM NaCl, 15°C
Procedure: (§2) Supplementary file ppat.1002531.s004.doc: Figure S4 The C-terminus of the 62 residue secretin peptide ([…]) is unstructured. ^1H-^15N HSQC spectra of recombinantly produced ^15N-labelled secretin peptide (70 µM peptide in 20 mM Tris pH 7.0 with 150 mM NaCl at 15°C) acquired using a Bruker 700 MHz spectrophotometer. […] The spectra are cleaner than those shown previously (Figure S2 and S3) because the spectra were acquired quickly. […] (DOC) Click here for additional data file.

pilotin = conditions: ref [11]; cited from earlier work
Description: This secretin peptide was produced with ^15N-label as a fusion to GST and then released with PreScision protease.

[3] = NMR 1H-15N HSQC of free secretin peptide (disorder); assay type: physicochemical; conditions: 20 mM Tris pH 7.0, 150 mM NaCl, 15°C, 700 MHz
Procedure: as §1, §2

non-lipidated OutS = experiment: GST pull-down assay; assay type: binding, Dickeya dadantii
Procedure: (§3) Figure S6. Reducing environment prevents interaction of OutS with the C-terminal peptide of OutD. […] Soluble cell extracts of E. coli BL21(DE3) producing either GST alone (lane 1) or GST-OutD649-710 (lanes 2 and 3) were combined with a periplasmic extract containing non-lipidated OutS, then loaded on Glutathione Agarose for 1 h and washed. The incubations were performed in either TBS (lanes 1 and 2) or TBS with 5 mM DTT (lane 3). Bound proteins were eluted with Laemmli sample buffer, separated by Tricine-SDS-PAGE and either stained (upper panel) or probed with OutS antibodies (lower panel). Asterisk indicates a degradation product of GST-OutD649-710. […] The region coding for mature OutS (residues […]) was fused to the C-terminus of T18 subunit of Cya (pUT18-OutS) and the region coding for GST-OutD649-710 was fused to the C-terminus of T25 subunit of Cya (pKT25-GST-Dct). When pUT18-OutS and pKT25-GST-Dct were coexpressed in E. coli DHP1 cya strain, the coresponding fusion proteins were well produced as shown by immunoblotting with anti-OutS and anti-GST antibodies, respectively. […] is indicated by a dot and T25-GST-Dct by a triangle.

OutS = experiment: Bacterial two-hybrid assay; assay type: cell-based, Dickeya dadantii
Procedure: as §3

[4] = target: T1, non-lipidated pilotin OutS (residues 26 …); experiment: other fluorescence titration; quenching of the single tryptophan of pilotin (1 µM) on titration with 50 µM secretin peptide in 1 µM pilotin; excitation 290 nm, signal at 340 nm, 15°C; conditions: both partners purified
secretin = experiment: Effect of pilotin binding-surface mutations on secretin binding; parameters: species or system Dickeya dadantii; conditions: in words
Description: The pET-20b(+) plasmid expressing non-lipidated OutS (residues 26 to 132) fused to N-terminal PelB signal peptide has been constructed previously at a manner as the sequence of mature non-lipidated OutS after cleavage by the signal peptidase LepB is: MDP^26VKNT etc. To fuse a C-terminal 6His tag to non-lipidated OutS, SalI site was introduced at the end of outS sequence by using the primer (5′-ctt gac gcc atg cgc acc gtc gac tga ggg gga agc aac tgc) and the reverse complementary one (mutated bases are underlined). Then, by SalI/XhoI digestion the sequence coding for non-lipidated OutS was fused with that coding for 6His. Mutants of OutS were made using Strategene QuikChange and confirmed by sequencing.
Fluorescence data were collected using a Jasco FP-6300 Spectrofluorometer. To avoid exciting tyrosyl side chains, an excitation wavelength of 290 nm was used. Emission spectra were recorded at 15°C in steps of 2 nm from 310 to 400 nm. The fluorescence signal at 340 nm was plotted to calculate K d. Pilotin spectra was measured at 1 µM. 50 µM of secretin peptide prepared in 1 µM pilotin was titrated into pilotin solution (for more information see also Table S1 and reference).

Q: For “OutD^680–710: 15N-labelled secretin peptide (OutD680–710) (DNNTLRLSGGNTYTFRQVQSSISDFYKPEGR; also: 15N-labelled; UniProt Q01565 680-710, looked up, fragment)”, which “residues of secretin peptide that become helical on binding” value (pilotin (OutS)) is on record?
A: Its value is “at least four”.

B1: 62 residue C-terminal secretin peptide (OutD residues 649-710) (peptide)
chain: DPGQFQEASINKYRSFNNEQQQQRGEGNGVLDNNTLRLSGGNTYTFRQVQSSISDFYKPEGR
notes: secretin OutD, Dickeya dadantii, C-terminal 62 residues (649-710); 15N-labelled in one titration, unlabelled in the other; The peptide is slowly cleaved; also called 62 residue secretin peptide; OutD^648–710; source: E. coli BL21(DE3), purified as GST fusion, released with PreScision protease; not shown: GST, N-terminal, cleaved
Q: For B1, which “stoichiometry N” value [1] is on record?
A: The value was 1.

B2: 62 residue secretin peptide: C-terminal 62 residues of the secretin, produced as a fusion to GST and released with PreScision protease (protein)
chain: B1 chain
modifications: left off: GST, N-terminal, cleaved
notes: C-terminal 62 residues of the secretin, produced as a fusion to GST and released with PreScision protease
Q: Which results are given for B2?
A: cleavage of peptide [2]: slowly cleaved; binding to pilotin (pilotin): bound to the pilotin; structure in solution (dispersion of backbone amides) [3]: intrinsically unstructured; structure in solution (dispersion of backbone amides) ([3]; listed as C-terminal 62 residues): unstructured in solution

B3: GST-OutD649-710: C-terminal segment of OutD fused to GST; in two-hybrid fused to C-terminus of T25 subunit of Cya (protein)
chain: B1 chain
modifications: not fully specified (N-terminus); also: fused to GST
notes: C-terminal segment of OutD fused to GST; in two-hybrid fused to C-terminus of T25 subunit of Cya
Q: Which “binding in GST pull-down” value (non-lipidated OutS; reducing conditions, TBS with 5 mM DTT, 1 h on Glutathione Agarose) does the source give for B3 here?
A: Its value is “does not bind”.

Q: What about the “colony colour in bacterial two-hybrid assay” value (OutS; MacConkey-maltose agar, known interacting couple used as positive control) of the same molecule?
A: The value was “white colonies”.

Q: And the “interaction in bacterial two-hybrid assay” value (OutS; reducing conditions of the bacterial cytoplasm, T25/T18 fusions, E. coli DHP1 cya, MacConkey-maltose agar)?
A: The value was “does not interact”.

B4: 18 residue synthetic secretin peptide (OutD residues 691 to 708 inclusive) (peptide)
peptide: TYTFRQVQSSISDFYKPE
notes: secretin OutD, Dickeya dadantii, residues 691 to 708 inclusive; also called 18 residue secretin peptide; OutD^691–708; source: synthetic peptide, bought: Generon
Q: For B4, which Kd [4] is on record?
A: Its Kd is 55 ± 20 nM.

Q: And the “stoichiometry N” value [4]?
A: Its value is 1.

B5: OutS: Dickeya dadantii type II secretion system pilotin, non-lipidated (residues 26 to 132), UniProt Q01567 (protein)
chain: CQTPAPVKNTASRSAASVPANEQISQLASLVAASKYLRVQCERSDLPDDGTILKTAVNVAVQKGWDTGRYQSLPQLSENLYQGLLKDGTPKATQCSSFNRTMTPFLDAMRTVR
Q: With B5 as the molecule, how does the “binding to cognate secretin with reducing agent, pull-down” value (non-lipidated OutS; reducing agent, non-lipidated OutS with GST-OutD649–710) read?
A: The value was “unable to bind the cognate secretin”.

Q: And the “binding to cognate secretin with reducing agent, two-hybrid” value (OutS; bacterial two-hybrid)?
A: The value was “unable to bind the cognate secretin”.

B6: OutS_L100A (protein, UniProt Q01567 21-133, looked up, variant L100A)
Pilotin OutS: B5 chain with L80A
Q: Which “effect of mutation on binding” value (secretin) does the source give for B6 here?
A: The value was “substantial effect on binding”.

B7: OutS_Q114A (protein, UniProt Q01567 21-133, looked up, variant Q114A)
Pilotin OutS: B5 chain with Q94A
Q: With B7 as the molecule, how does the “effect of mutation on binding” value (secretin) read?
A: Its value is “substantial effect on binding”.

B8: OutS_L96A (protein, UniProt Q01567 21-133, looked up, variant L96A)
Pilotin OutS: B5 chain with L76A
Q: For B8, which “effect of mutation on binding” value (secretin) is on record?
A: Its value is “substantial effect on binding”.

B9: OutS_S49R (protein, UniProt Q01567 21-133, looked up, variant S49R)
Pilotin OutS: B5 chain with S29R
Q: Which “effect of mutation on binding” value (secretin) does the source give for B9 here?
A: The value was “profound effect on binding”.
